A short description of series [1]: Fluorescence change of labelled PBP on Pi binding. The conditions noted are these: for fluorescence increase with Pi: Pi-bound vs Pi-free, typical product, 10 mM PIPES pH 7.0. An excerpt:
Fluorescence spectra were obtained under the same conditions. Excitation was at 555 nm. The fluorescence signals were normalised to 100%, representing the maximum intensity in the presence of Pi.

Series [2] can be described thus: Fluorescence titration of labelled PBP with Pi (binding capacity). Conditions: 20° C. Here is the method:
This fluorescence represents the value when approximately Pi-free. The lines shown in FIG. 3 are a best fit to data from 0 to 4 μM added Pi, and a horizontal line.

Series [3] is described as follows: Stopped-flow association kinetics of Pi with rhodamine-PBP. Type of series: binding. An excerpt: A stopped-flow apparatus was used to determine association and dissociation kinetics of Pi from rhodamine-PBP.
A representative set of fluorescence traces is shown in FIG. 4A, all normalized to 100% for the initial intensity, but offset by 15% from each other. As the concentration of Pi and the rate increase, a significant proportion of the fluorescence trace is lost in the dead time of the stopped-flow instrument, causing an apparent decrease in intensity.
It is apparent that the rate reaches a limiting high value. This can be interpreted in terms of a two-step mechanism, binding itself (step 1), then a conformation change (step 2):
The fluorescence change occurs in step 2 and is likely to be concomitant with the closure of the binding cleft. It is this process that limits the overall rate at high Pi concentration. The data in FIG. 4B fitted to a hyperbola give 1/K1=2.2 μM and k+2+k−2=267 s^−1 (at 10° C.).

The nature of series [4]: Stopped-flow dissociation kinetics of Pi from rhodamine-PBP. Conditions: 10° C.
Method: Absorbance spectra were obtained using a Beckman DU640 spectrophotometer. Fluorescence measurements were obtained on a Perkin Elmer LS50B or Cary Eclipse fluorimeter with xenon lamp. Stopped flow experiments were carried out on a HiTech SF61MX apparatus, with a mercury-xenon lamp and HiTech IS-2 software, a monochromator and 4 mm slits on the excitation light (550 nm for rhodamine) and a 570 nm cut-off filter on the emission. The stated concentrations are those in the mixing chamber, unless stated otherwise.
0.25 unit mL^−1 PNPase and 100 μM 7-methylguanosine were present with the wild-type PBP to ensure that it was free of Pi prior to mixing.
The conditions of series [5]: similar titration, reference 25; cited from earlier work.

Residue numbers refer to the chain shown, from its start. Names and notes keep the numbering of the source. Where two headings read alike, the source gives them in different places.

B1: rhodamine-PBP: E. coli PBP Ala17Cys/Ala197Cys (17/197) mutant doubly labelled with 6-IATR (conjugate, UniProt P0AG82 26-346, looked up, variant A17C A197C)
Phosphate-binding protein PstS: EASLTGAGATFPAPVYCKWADTYQKETGNKVNYQGIGSSGGVKQIIANTVDFGASDAPLSDEKLAQEGLFQFPTVIGGVVLAVNIPGLKSGELVLDGKTLGDIYLGKIKKWDDEAIAKLNPGLKLPSQNIAVVRRADGSGTSFVFTSYLAKVNEEWKNNVGTGSTVKWPIGLGGKGNDGIAAFVQRLPGAIGYVEYCYAKQNNLAYTKLISADGKPVSPTEENFANAAKGADWSKTFAQDLTNQKGEDAWPITSTTFILIHKDQKKPEQGTEVLKFFDWAYKTGAKQANDLDYASLPDSVVEQVRAAWKTNIKDSSGKPLY
modifications: doubly labelled with 6-IATR rhodamine
notes: E. coli PBP Ala17Cys/Ala197Cys (17/197) mutant doubly labelled with 6-IATR
Take B1: the “fluorescence increase with Pi” value in series [1] is reported as 18 fold. Also, in series [1] (emission at 578 nm (λmax), depends on purity of doubly labelled species, listed as A17C-A197C), the “fluorescence increase with Pi, maximum / best batch” value was “up to 30 fold”. Also, the “binding capacity for Pi” value in series [2] is on record as approximately 100%. The “k+2+k−2 (conformation change step 2)” value in series [3] (hyperbola fit, 10° C., 10 mM PIPES pH 7.0) worked out at 267 s⁻¹. The Kd was found to be 2200 nM in series [3] (hyperbola fit, 10° C., 10 mM PIPES pH 7.0, read-out: 1/K1 (binding step 1)); 60 nM in series [4] (read-out: overall dissociation constant k−2/k+2K1, from association and dissociation kinetics). Further, the “association kinetics compared with MDCC-PBP” value in series [3] (rhodamine-PBP at 10° C. vs MDCC-PBP at 5° C.) was “slower than that found with MDCC-PBP at 5 °C”. Further, in series [4] (best fit exponential, excess 10 μM wild-type PBP), the Pi dissociation rate was 6.6 s⁻¹.

B2: K229C-E302C: E. coli PBP Lys-229/Glu-302 to Cys double mutant, doubly labelled with 6-IATR (conjugate, UniProt P0AG82 26-346, looked up, variant K229C E302C)
Phosphate-binding protein PstS: B1 Phosphate-binding protein PstS with C17A, C197A, K229C, E302C
modifications: 6-IATR labels
notes: E. coli PBP Lys-229/Glu-302 to Cys double mutant, doubly labelled with 6-IATR
For the molecule B2, the “binding capacity for Pi” value in series [2] is listed as approximately 100%.

B3: MDCC-PBP: prior-art MDCC-labelled PBP, label linked via a chiral centre on a succinimide (conjugate, UniProt P0AG82 26-346, looked up)
Phosphate-binding protein PstS: B1 Phosphate-binding protein PstS with C17A, C197A
modifications: MDCC fluorophore label
notes: prior-art MDCC-labelled PBP, label linked via a chiral centre on a succinimide
Consider B3, for which the “binding capacity for Pi” value in series [5] was 75%.

B4: RRC2M: here the product of A17C-A197C mutant PBP labelled with the maleimide Rhodamine Red C2 (conjugate, UniProt P0AG82 26-346, looked up, variant A17C A197C)
Phosphate-binding protein PstS: B1 Phosphate-binding protein PstS
modifications: Rhodamine Red C2 maleimide labels
Turning to B4, the “fluorescence increase with Pi” value in series [1] is given as “little fluorescence change”.

The values above are taken from patent US8188225B2, “Inorganic phosphate assays” (Medical Research Council, priority 2005, dated 2012).
